Source: paper PMC5374107

Assays:
ICAM-1D1D5-Fc (human) [1] = assay: SPR; Biacore T-200; ICAM-1D1D5 Fc immobilized to 2100 RU on a CM5 chip pre-coupled to Protein A; wild type or mutant PF11_0521 DBLβ3_D4 injected, two-fold dilutions 4 nM to 500 nM, 40 µL/min, 240 s association, 660 s dissociation; 10 mM HEPES pH 8.0, 300 mM NaCl, 0.05% Tween-20; global fit to a one-site kinetic model
ICAM-1D1D5-Fc (human) [2] = assay: SPR; Biacore T-200; ICAM-1D1D5 Fc immobilized to 1,400 RU on a CM5 chip pre-coupled to Protein A; head structures injected, two-fold dilutions 4 nM to 500 nM, 40 µL/min, 240 s association, 600 s dissociation; 10 mM HEPES pH 8.0, 300 mM NaCl, 0.05% Tween-20; one-site kinetic model
[3] = target: Recombinant His-tagged EPCR (human) (UniProt Q9UNN8); assay: SPR; Biacore T-200; biotinylated EPCR immobilized to 650 RU on a CAP chip (Biotin Capture Kit); head structures injected, two-fold dilutions 500 nM to 4 nM, 30 µL/min, 240 s association, 720 s dissociation; 10 mM HEPES pH 7.4, 300 mM NaCl, 0.05% Tween-20, 2 mg/ml ssDNA; one-site kinetic model
Sequence of Recombinant His-tagged EPCR (human) (Q9UNN8 18-238): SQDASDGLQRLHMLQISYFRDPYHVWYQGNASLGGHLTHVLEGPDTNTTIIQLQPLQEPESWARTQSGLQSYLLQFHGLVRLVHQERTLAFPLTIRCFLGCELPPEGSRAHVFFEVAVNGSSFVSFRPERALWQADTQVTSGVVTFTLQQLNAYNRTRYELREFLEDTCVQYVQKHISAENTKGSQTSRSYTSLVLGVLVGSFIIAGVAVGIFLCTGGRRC

Substance | Kd (ICAM-1D1D5-Fc (human) [1]) | koff (ICAM-1D1D5-Fc (human) [1]) | kon (ICAM-1D1D5-Fc (human) [1]) | Kd (ICAM-1D1D5-Fc (human) [2]) | koff (ICAM-1D1D5-Fc (human) [2]) | kon (ICAM-1D1D5-Fc (human) [2]) | Kd [3] | koff [3] | kon [3]
PF11_0521 DBLβ3_D4 G1083A (domain or fragment) | 3520 nM | 0.0701 s⁻¹ | 19900 M⁻¹ s⁻¹ | – | – | – | – | – | –
PF11_0521 DBLβ3_D4 G1084A (domain or fragment) | 4060 nM | 0.0394 s⁻¹ | 9700 M⁻¹ s⁻¹ | – | – | – | – | – | –
PF11_0521 DBLβ3_D4 G1111A (domain or fragment) | 34.1 nM | 0.000639 s⁻¹ | 18700 M⁻¹ s⁻¹ | – | – | – | – | – | –
PF11_0521 DBLβ3_D4 H1121A (domain or fragment) | 962 nM | 0.00592 s⁻¹ | 6100 M⁻¹ s⁻¹ | – | – | – | – | – | –
PF11_0521 DBLβ3_D4 I1078S (domain or fragment) | 1250 nM | 0.0235 s⁻¹ | 18800 M⁻¹ s⁻¹ | – | – | – | – | – | –
PF11_0521 DBLβ3_D4 K1124A (domain or fragment) | 9.75 nM | 0.000154 s⁻¹ | 15900 M⁻¹ s⁻¹ | – | – | – | – | – | –
PF11_0521 DBLβ3_D4 M1071S (domain or fragment) | 24.6 nM | 0.000451 s⁻¹ | 18400 M⁻¹ s⁻¹ | – | – | – | – | – | –
PF11_0521 DBLβ3_D4 N1082A (domain or fragment) | 1320 nM | 0.0244 s⁻¹ | 18400 M⁻¹ s⁻¹ | – | – | – | – | – | –
PF11_0521 DBLβ3_D4 N1089A (domain or fragment) | 6.3 nM | 0.000114 s⁻¹ | 17900 M⁻¹ s⁻¹ | – | – | – | – | – | –
PF11_0521 DBLβ3_D4 P1116A (domain or fragment) | 1690 nM | 0.00237 s⁻¹ | 1300 M⁻¹ s⁻¹ | – | – | – | – | – | –
PF11_0521 DBLβ3_D4 R1077A (domain or fragment) | 34.7 nM | 0.000382 s⁻¹ | 11000 M⁻¹ s⁻¹ | – | – | – | – | – | –
PF11_0521 DBLβ3_D4 T1120A (domain or fragment) | 21.1 nM | 0.000298 s⁻¹ | 14100 M⁻¹ s⁻¹ | – | – | – | – | – | –
PF11_0521 DBLβ3_D4 domain, wild type (domain or fragment) | 3.2 nM | 6.2e-05 s⁻¹ | 19300 M⁻¹ s⁻¹ | – | – | – | – | – | –
PFD1235w head structure (CIDRα1.6-DBLβ3) (domain or fragment) | – | – | – | 18 nM | 0.000108 s⁻¹ | 6000 M⁻¹ s⁻¹ | 17.1 nM | 0.000581 s⁻¹ | 34000 M⁻¹ s⁻¹
